Measured values as given in PMC12416549 (2024).
Numbering of substitutions follows the chain as printed. In names and notes the source's numbering stands.

B1: E92S (designed binder)
chain: SMEEEVEKAAKEYEKKKKEAIEKHLEKLKAKDKEAAERFLKELEEAAKEYAKDEAKTMSEEEAKRRAKKYKEKVLLSELSEEEQKEIKEAESKLVRTILKYVEEAAK
B2: Y50E (designed binder)
chain: B1 chain with Y50E, S92E
B3: S1V (designed binder)
chain: B1 chain with S1V, S92E
B4: E72D (designed binder)
chain: B1 chain with E72D, S92E
B5: I98N (designed binder)
chain: B1 chain with S92E, I98N
B6: K11A (designed binder)
chain: B1 chain with K11A, S92E
B7: E34Y (designed binder)
chain: B1 chain with E34Y, S92E
B8: E45L (designed binder)
chain: B1 chain with E45L, S92E
B9: A90S (designed binder)
chain: B1 chain with A90S, S92E
B10: E62T (designed binder)
chain: B1 chain with E62T, S92E
B11: K56E (designed binder)
chain: B1 chain with K56E, S92E
B12: A36H (designed binder)
chain: B1 chain with A36H, S92E
B13: R38P (designed binder)
chain: B1 chain with R38P, S92E
B14: H24G (designed binder)
chain: B1 chain with H24G, S92E
B15: L75W (designed binder)
chain: B1 chain with L75W, S92E
B16: L40M (designed binder)
chain: B1 chain with L40M, S92E
B17: K69D (designed binder)
chain: B1 chain with K69D, S92E
B18: K31V (designed binder)
chain: B1 chain with K31V, S92E
B19: K17W (designed binder)
chain: B1 chain with K17W, S92E
B20: K23R (designed binder)
chain: B1 chain with K23R, S92E
B21: E44L (designed binder)
chain: B1 chain with E44L, S92E
B22: K23S (designed binder)
chain: B1 chain with K23S, S92E
B23: K48W (designed binder)
chain: B1 chain with K48W, S92E
B24: K15C (designed binder)
chain: B1 chain with K15C, S92E
B25: E91Y (designed binder)
chain: B1 chain with E91Y, S92E
B26: I87D (designed binder)
chain: B1 chain with I87D, S92E
B27: L94E (designed binder)
chain: B1 chain with S92E, L94E
B28: L75R (designed binder)
chain: B1 chain with L75R, S92E
B29: L99C (designed binder)
chain: B1 chain with S92E, L99C
B30: D32W (designed binder)
chain: B1 chain with D32W, S92E
B31: E37P (designed binder)
chain: B1 chain with E37P, S92E
B32: E82Y (designed binder)
chain: B1 chain with E82Y, S92E
B33: E60M (designed binder)
chain: B1 chain with E60M, S92E
B34: V6P (designed binder)
chain: B1 chain with V6P, S92E
B35: E91C (designed binder)
chain: B1 chain with E91C, S92E
B36: E92F (designed binder)
chain: B1 chain with S92F
B37: E26Q (designed binder)
chain: B1 chain with E26Q, S92E
B38: E26Y (designed binder)
chain: B1 chain with E26Y, S92E
B39: L99Y (designed binder)
chain: B1 chain with S92E, L99Y
B40: V102N (designed binder)
chain: B1 chain with S92E, V102N
B41: A63M (designed binder)
chain: B1 chain with A63M, S92E
B42: A35E (designed binder)
chain: B1 chain with A35E, S92E
B43: V74M (designed binder)
chain: B1 chain with V74M, S92E

Target: T1, TNFR1 (Homo sapiens, UniProt P19438)
T1 chain: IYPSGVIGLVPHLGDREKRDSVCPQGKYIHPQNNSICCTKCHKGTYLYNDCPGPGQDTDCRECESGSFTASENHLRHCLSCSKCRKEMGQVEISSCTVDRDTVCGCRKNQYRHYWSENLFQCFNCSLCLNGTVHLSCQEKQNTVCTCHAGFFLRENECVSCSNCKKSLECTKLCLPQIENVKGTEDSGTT
Assay: yeast display SC50

Row | Binder | apparent Kd (screen) [nM]
1 | B1 | 7.07
2 | B2 | 9.41
3 | B3 | 0.869
4 | B4 | 1.4
5 | B5 | 5.84
6 | B6 | 0.446
7 | B7 | 0.539
8 | B8 | 1.69
9 | B9 | 0.79
10 | B10 | 1.54
11 | B11 | 1.86
12 | B12 | 0.49
13 | B13 | 11.4
14 | B14 | 0.718
15 | B15 | 0.446
16 | B16 | 0.593
17 | B17 | 1.4
18 | B18 | 0.446
19 | B19 | 1.16
20 | B20 | 0.49
21 | B21 | 1.4
22 | B22 | 0.49

Row | Binder | apparent Kd (screen) [nM]
23 | B23 | 2.73
24 | B24 | 1.27
25 | B25 | 8.56
26 | B26 | 15.2
27 | B27 | 8.56
28 | B28 | 1.16
29 | B29 | 13.8
30 | B30 | 22.2
31 | B31 | 0.49
32 | B32 | 0.653
33 | B33 | 0.49
34 | B34 | 0.446
35 | B35 | 13.8
36 | B36 | 13.8
37 | B37 | 0.956
38 | B38 | 0.869
39 | B39 | 9.41
40 | B40 | 0.446
41 | B41 | 9.41
42 | B42 | 2.25
43 | B43 | 1.54
